Measured values published in patent US11286278B2, “DPEP-1 binding agents and methods of use” (Arch Biopartners, Inc., priority 2018, dated 2022).
Ends that are not written are not given here. * marks the point of attachment. Biotin = O=C1N[C@H]2[C@H](CS[C@H]2CCCCC(=O)*)N1

What was measured:
[1] = target: T1, human membrane dipeptidase (DPEP-1) (Homo sapiens, UniProt P16444); test: Membrane dipeptidase enzyme activity assay (Gly-D-Phe, fluorometric); type: biochemical; conditions: lysates of transfected Cos1 cells, substrate Gly-D-Phe
T1 construct: expressed in transfected cells; host or cells: Cos-1
T1 sequence (P16444 17-385): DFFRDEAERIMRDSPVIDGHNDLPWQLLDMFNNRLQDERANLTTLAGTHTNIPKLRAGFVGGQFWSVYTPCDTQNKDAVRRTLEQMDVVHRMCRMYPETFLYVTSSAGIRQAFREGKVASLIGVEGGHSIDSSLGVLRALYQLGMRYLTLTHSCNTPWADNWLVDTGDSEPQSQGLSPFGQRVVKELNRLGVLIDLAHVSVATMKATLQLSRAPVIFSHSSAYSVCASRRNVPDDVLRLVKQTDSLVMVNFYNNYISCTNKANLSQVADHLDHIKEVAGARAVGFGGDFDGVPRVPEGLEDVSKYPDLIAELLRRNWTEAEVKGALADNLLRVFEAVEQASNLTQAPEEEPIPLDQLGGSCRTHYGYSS
Procedure: 24 hours after transfection, DPEP-1 expressing cells weer reseeded on 24 well collagen coated (neutralized) plates and allowed to grow for 24 hours at 37° C. […] Cells were blocked with FBS/NBSA/Tween in PBS for 30 minutes on ice. […] After incubation, cells were washed with PBS and stained with DAPI for 4 minutes on ice. Cells were again washed with PBS, fixed using 4% paraformaldehyde and immunofluoresence microscopy was performed to assess binding. Proteins from human DPEP-1 transfected cells were isolated after 48 hours using octyl-glucoside/RIPA in the absence of protease inhibitors. […] Proteins from transfected cells were isolated after 48 hours using octyl-glucoside/RIPA lysis buffer and western blot analysis was performed to assess DPEP-1 expression using DPEP-1 antibody (Sigma).
The fluorescence signal generated from the conversion of D-Phe to […] in the presence of D-aminoacidoxidase and peroxidase was measured using a fluorescence plate reader.
Proteins from DPEP-1 transfected cells were isolated after 48 hours using octyl-glucoside/RIPA lysis buffer and western blot analysis was performed to assess DPEP-1 expression using a DPEP-1 specific antibody (Proteintech) (FIG. 24B).

DPEP1 = target: T2, DPEP1 (Homo sapiens, UniProt P16444); test: Alanine-substituted peptide binding to DPEP1 transfected HEK 293 cells, immunofluorescence; design: expressed in transfected cells; host or cells: HEK 293; conditions: test peptide at 5 uM, 1 hr at room temperature
T2 sequence (P16444 17-385): T1 sequence (P16444 17-385)
Procedure: […] were transfected with DPEP1 or DPEP2, two days prior to assay and were plated onto collagen-coated coverslips one day prior. Then fixed 10 min with 3.7% formaldehyde in PBS, washed 3 times in PBS, incubated with Alanine-substituted test peptide at 5 uM each, 1 hr at room temperature, washed twice with PBS gently, incubated with 1/50 Alexa 568-straptavadin in PBS, 1 hr at room temperature, washed twice with PBS gently and added DAPI Mounted with DAKO Fluorescent mounting media and evaluated for binding under fluorescence microscope.

[2] = Circular dichroism spectroscopy of LSALT peptide and analogs; type: physicochemical; design: Inducible Helical Structure (50% TFE-benign): unit not given here; conditions: for Inducible Helical Structure (50% TFE-benign) / [θ] (222 nm) 50% TFE / % Inducible Helical Structure (Inducible/50% TFE) / [θ] (222 nm) Benign (No TFE): 222 nm; for % Inducible Helical Structure (Inducible/50% TFE): 50% TFE is considered 100% folded; for [θ] (222 nm) Benign (No TFE): benign buffer (100 mM KCl, 50 mM Na2HPO4/NaH2PO4, pH 7.0)
Procedure: The physical and chemical properties of protein therapeutics are critical factors that influence the ease of manufacturing, development and clinical use. The LSALT peptide was evaluated in terms of its solubility, aggregation state and stability using a variety of biophysical methods.
In circular dichroism spectroscopy the ellipticity value at 222 nm is a measure of a-helical content. 50% trifluoroethanol is a hydrophobic solvent and induces α-helical structure if the structure can be induced. All of the peptides tested can be induced to adopt α-helical structure. The peptides are random coils in benign conditions (non-denaturing). The buffer conditions were aqueous phosphate, pH 7.0.

Row | inhibition of human DPEP1 enzymatic activity [1] | inhibition of human DPEP1 enzymatic activity ([1]; listed as cilastatin) | inhibition of human DPEP1 enzymatic activity ([1]; listed as penicillamine) | Compound | binding to DPEP-1 by immunofluorescence (alanine mutants) (DPEP1) | Inducible Helical Structure (50% TFE-benign) [2] | [θ] (222 nm) 50% TFE [2] | % Inducible Helical Structure (Inducible/50% TFE) [2] | [θ] (222 nm) Benign (No TFE) [2] | inducible α-helical structure (in words) ([2]; 50% trifluoroethanol)
1 | inhibited the activity | can be inhibited | – | CC1(C)C[C@@H]1C(=O)N/C(=C\CCCCSC[C@H](N)C(=O)O)C(=O)O [Cilastatin] | – | – | – | – | – | –
2 | inhibited the activity | – | can be inhibited | CC(C)(S)[C@@H](N)C(=O)O [Penicillamine] | – | – | – | – | – | –
3 | – | – | – | ASALTPSPSWLKYKAL [Pos 1] | decreased and increased binding to DPEP-1 | – | – | – | – | –
4 | – | – | – | Ac-LSALTPSPSWLKYKAL [Peptide A17] | – | 17,615 | −74897 | 23.5% | −57282 | –
5 | – | – | – | Ac-LSALTPSPSWLKYKAL-amide (Ac-LSALTPSPSWLKYKAL-NH2) [Peptide A18] | – | 40,612 | −78951 | 51.4% | −38340 | –
6 | – | – | – | Bio-ASALTPSPSWLKYKAL (Biotin-ASALTPSPSWLKYKAL) [Peptide A1] | – | 37,752 | −119807 | 31.5% | −82054 | –
7 | – | – | – | Bio-LAALTPSPSWLKYKAL [Peptide A2] | – | 51,374 | −117502 | 43.7% | −66128 | significantly enhances inducible α-helical structure
8 | – | – | – | Bio-LSAATPSPSWLKYKAL [Peptide A4] | – | 16,397 | −76916 | 21.3% | −60519 | –
9 | – | – | – | Bio-LSALAPSPSWLKYKAL [Peptide A5] | – | 29,755 | −79198 | 37.6% | −49443 | –
10 | – | – | – | Bio-LSALTGSPSWLKYKAL [Peptide A6] | – | 28,435 | −70926 | 40.1% | −42491 | –
11 | – | – | – | Bio-LSALTPAPSWLKYKAL [Peptide A7] | – | 20,988 | −70198 | 29.9% | −49209 | –
12 | – | – | – | Bio-LSALTPSASWLKYKAL [Peptide A8] | – | 9,444 | −42335 | 22.3% | −32890 | –
13 | – | – | – | Bio-LSALTPSPAWLKYKAL [Peptide A9] | – | 13,436 | −62889 | 21.4% | −49453 | –
14 | – | – | – | Bio-LSALTPSPSALKYKAL (Biotin-LSALTPSPSALKYKAL) [Peptide A10] | – | 9,583 | −35792 | 26.8% | −26209 | –
15 | – | – | – | Bio-LSALTPSPSWAKYKAL (Biotin-LSALTPSPSWAKYKAL) [Peptide A11] | – | 21,682 | −80196 | 27.0% | −58514 | –
16 | – | – | – | Bio-LSALTPSPSWLAYKAL (Biotin-LSALTPSPSWLAYKAL) [Peptide A12] | – | 8,451 | −36742 | 23.0% | −28292 | –
17 | – | – | – | Bio-LSALTPSPSWLKAKAL (Biotin-LSALTPSPSWLKAKAL) [Peptide A13] | – | 31,488 | −80841 | 39.0% | −49352 | –
18 | – | – | – | Bio-LSALTPSPSWLKYAAL (Biotin-LSALTPSPSWLKYAAL) [Peptide A14] | – | 14,068 | −39862 | 35.3% | −25794 | –
19 | – | – | – | Bio-LSALTPSPSWLKYKAA (Biotin-LSALTPSPSWLKYKAA) [Peptide A16] | – | 11,796 | −37070 | 31.8% | −25275 | –
20 | – | – | – | Bio-LSALTPSPSWLKYKAL-amide (Biotin-LSALTPSPSWLKYKAL-NH2) [Peptide A19] | – | 77,996 | −153947 | 50.7% | −75952 | –
21 | – | – | – | Bio-LSALTPSPSWLKYKGL (Biotin-LSALTPSPSWLKYKGL) [Peptide A15] | – | 23,450 | −92167 | 25.4% | −68717 | –
22 | – | – | – | Bio-LSGLTPSPSWLKYKAL [Peptide A3] | – | 18,865 | −68580 | 27.5% | −49714 | –
23 | – | – | – | LSALAPSPSWLKYKAL [Pos 5] | decreased and increased binding to DPEP-1 | – | – | – | – | –
24 | – | – | – | LSALTPSPSALKYKAL [Pos 10] | decreased and increased binding to DPEP-1 | – | – | – | – | –
25 | – | – | – | LSALTPSPSWLAYKAL [Pos 12] | decreased and increased binding to DPEP-1 | – | – | – | – | –
